From the nanobody polyreactivity screen of Harvey et al. (2022)

Experiment: yeast display, Sf9 membrane polyspecificity reagent, FACS + sequencing; frameworks hold sequencing errors
Method in brief: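 Nanobodies from a synthetic yeast display library (Saccharomyces cerevisiae BJ5465), induced 36–48 hours with galactose, were stained 1 hour at 4 °C with 10% biotinylated, detergent-solubilized Sf9 membrane reagent, enriched on streptavidin microbeads, then FACS-sorted. Anti-HA (expression) and streptavidin (reagent binding) fluorescence set low and high (top ~1%) gates. Polyreactivity labels come from the gate of origin. Genes were colony-PCR amplified, MiSeq 2 × 250 sequenced and filtered by CDR length.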

Sequence | polyreactivity (PSR sort gate)
QVQLVESGGGLDQAGGSLRLSCAASARIFAAYAMGWYRQAPGKEREFVAAITTAGSTHYADSVKGRFTISRDNAKYTVYLQMNSLKPEDTPVYYCAADGIARAYVLFDAYDFLYDYWGQGTQVTVSS | low polyreactivity
QVQLVESGGGLDQAGGSLRLSCAASGFIFDYYAMGWYRQPPWKERELVAAITSGDSTNYADSVKGRFTISRDNAKNTVYLQMNSLKPEDTAVYYCATRFGDRTVSYDSWGQGTQVTVSS | low polyreactivity
QVQLVESGGGLDQAGGSLRLSCAASGFIFFQYAMGWYRQAPGKERELVAAISGSGVTTYYADSVKGRFTISRDNAKNTVYLQMNSLKPEDTAVYYCAADTPPYYAYWDVSFEYYYWGQGTQVTVSS | low polyreactivity
QVQLVESGGGLDQAGGSLRLSCAASGFIFYRYAMGWYRQAPGKERELVAAINWSGGGTYYADSVKGRFTISRDNAKNTVYLQMNSLKPEDTAVYYCAAVRSFRGSYWYEYWGQGTKVTVSS | high polyreactivity
QVQLVESGGGLDQAGGSLRLSCAASGFISPWYAMGWYRPAPGKERELDAAIDWSGGSTYYADSVKGRFTISRDNAKNTVYIQMKSLKPEDTAVYYCAARYYTAAVRAGRVRMYSWGQGTQVTVSS | high polyreactivity
QVQLVESGGGLDQAGGSLRLSCAASGFTFPIYAMGWYRQAPGKERELVAAITTRGGRTYYADSVKGRFTISRDNAKNTVYLQMNSLKPEDTAVYYCNAQGYAYRLWFGYWGQGTQVTVSS | high polyreactivity
QVQLVESGGGLDQAGGSLRLSCAASGFTFYPYTMGWYRQAPGKERELVADITYDSTYYADSVKGRFTISRDNAKNTVFLQMNSLKPADTAVYYCNATGYSVSRSAYWYGWYDYWGQGTQVTVSS | low polyreactivity
QVQLVESGGGLDQAGGSLRLSCAASGIIFRSNAMGWYRQAPGKERELVAAITGRGTRTYYADSVKGRFTISRDNAKNTVYLQMNSLKPEDTAVDYCNTGQTRGMGYWGQGTQVTVSS | high polyreactivity
QVQLVESGGGLDQAGGSLRLSCAASGIIFRWYAMGWYRQAPGKERELVAAITASGGSTYYADSVKGRFTISRDNAKNTVYLQMNSLKPEDTAVYYCNKLRLANIQTDGYYYWGQGTQVTVSS | high polyreactivity
QVQLVESGGGLDQAGGSLRLSCAASGIIITIYAMVWYRQAPGKERELVAAISFSVGSTYYADSVKGRFTISRDNAKNTFFLQMNSLKPEDTAVYYCAAESYTYPFEYWGQGTQVTVSS | high polyreactivity
QVQLVESGGGLDQAGGSLRLSCAASGITFDFNDLGWYRQAPGKERELVACINGNSDSTYYADSVKGRFTISRDIAKNTVFLQMNSLKPEDTAVYYCNVPTVRYRYDSWGQGTQVTVSS | low polyreactivity
QVQLVESGGGLDQAGGSLRLSCAASGITFGFYTMGWYRQAPGKERELVAAITSGGSTSYADSVKGRFTISRDNAKNTVYLQMNSLKPEDTAVYYCAADYLYPFPPYQYWKQSYDYWGQGTQVTVSS | low polyreactivity
QVQLVESGGGLDQAGGSLRLSCAASGITFPYYAMGRYIQAPGKERELVADITSGGSTNYADSVKGRFTISRDNAKNTGYLQMNRLKPEDTAVYYCAADWYVIYDYWGQGTQVSVSS | low polyreactivity
QVQLVESGGGLDQAGGSLRLSCAASGLIFVRYAMGWYRQAPGKERELVATISARGASTYYADSVKGRFTISRDNAKNTVYLQMNSLIPEDTAVYYCANRGYYSRFYSYGYWGQGTEVTVSS | high polyreactivity
QVQLVESGGGLDQAGGSLRLSCAASGLILRRYDMGWYRQAPGKERELVAAISGSGGRTYYADSVKGRFTISRDNAKNTVYLQMNSLKPEDTAVYYCAAEYSYYYDQYSYDYWGQGTQVTVSS | high polyreactivity
QVQLVESGGGLDQAGGSLRLSCAASGNTLNYYTMGWYRQAPGKEREFVAAISWRGSRTYYADSVKGRFTISRDNAKNTVYLQMNRLKQEDTAVYYCATARYGYYGWTPYGDYIFDYWGQGTQVTVSS | high polyreactivity
QVQLVESGGGLDQAGGSLRLSCAASGRIFGFYAMGWYRQAPGKERELVAAITINTGSTSYADSVKGRFTISRDNAKNTVYFQMNSLKPEDTAVYYCATDAAAPKYDYWGQGTQVTVSS | low polyreactivity
